A short description of data set [1]: folding stability dG unfold from trypsin proteolysis; higher = more stable. Here is the method: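 Folding stability of de novo designed mini-proteins (<80 aa, no Cys; designed by TrROS, TrMRF, ProteinMPNN and the joint model) was measured by cDNA display proteolysis with trypsin and chymotrypsin. Each protease was used at 11 concentrations in a threefold dilution series plus a no-protease condition. K50 was inferred by Bayesian fitting of sequencing counts, and dG unfold was derived against a sequence-predicted unfolded-state K50 (Tsuboyama et al. method). Sequences shown include variable-length N-terminal GS-type padding (SAGGSAGG...) inside a display construct carrying a PA tag. Rows were kept only if the AF2 dimer inter-PAE was >15, to exclude likely homo-oligomers.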

A short description of data set [2]: folding stability dG unfold (combined trypsin and chymotrypsin); higher = more stable. In a few lines: (§1)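 K50 was inferred by Bayesian fitting of sequencing counts obtained after protease digestion of designed mini-proteins. Unfolding free energy was derived by comparison with a sequence-predicted unfolded-state K50 and a shared folded-state K50, for each protease or both combined. The mini-proteins were under 80 residues, had no cysteine, were carried in a PA-tagged cDNA display construct, and were kept only if AlphaFold2 dimer inter-PAE exceeded 15.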

The nature of data set [3]: folding stability dG unfold from chymotrypsin proteolysis; higher = more stable. In a few lines:
as §1

± gives the half width of the 95% confidence interval.

Experimental findings from the supplement of paper PMC12764529 are described below.

In the case of “EMTVTVKIEIEKTPDSIKIKITVEVNGKKIEEVEITYDKKTKKIYIKVKVKSKEDLDELKKLLEKLGFKVES [r1_455_TrROS_Hall]”, the “folding stability dG unfold” value in data set [1] is 3.81 ± 0.31 kcal/mol; in data set [2], more than 6 kcal/mol. For the sequence “GKVLAVPVSYDPETGTVTVLEVKDTGTTLATLKPLPVVDISREELEKLAKGLAEENPELKELAEKLVEELAS [r1_330_TrMRF]”, the “folding stability dG unfold” value in data set [1] was -0.145 ± 0.075 kcal/mol; in data set [2], -0.197 ± 0.35 kcal/mol.

Turning to “GMVLVRVELYRPDEEELVAEVEIPFPVPESLLENLSEEEREKLREEAEKAAEKLAEELGDVEVKPEIYTDLS [r1_115_TrMRF]”, the “folding stability dG unfold” value in data set [1] is 0.147 ± 0.095 kcal/mol; in data set [2], -0.317 ± 0.42 kcal/mol. For the sequence “IKIRFPDGHEITEIDDLSFSGNGYIEINVKVRNPENPQTQPMPIYIPVPPVPPPPVKIERDPGNGKWKYEDS [r1_411_TrROS]”, the “folding stability dG unfold” value in data set [1] is 0.799 ± 0.07 kcal/mol; in data set [2], -0.179 ± 0.33 kcal/mol.

Consider “LKITLPGGAEVTEIDDIKVSSDGYIELNVRVRNPDNDVEVPVPVYIPVPPVPPVPVKVSFIPGTGKLVVDDS [r1_411_TrMRF]”, for which the “folding stability dG unfold” value was 0.0956 ± 0.11 kcal/mol in data set [1] and less than -1 kcal/mol in data set [2]. Taken in the same sequence, the figures for “MKKTIPFPPSHPDLSPEEVAERLRERFLSPEESITVTTDPATGTTTVTATRGNVTTVATLSPAGTVTVTGAS [r1_131_JUSTAS]” were -0.0831 ± 0.14 kcal/mol and less than -1 kcal/mol. With “SAAPTSSGPISLNKPEILTITSVEADPETGTITTPTRVELTEEELDPFNPEIPTFKKKYLDVTLTTPTSSAG [r14_888_JUSTAS]”, the “folding stability dG unfold” value in data set [1] is -0.643 ± 0.45 kcal/mol; in data set [2], less than -1 kcal/mol. As for “SAGDWMMVEMTVDFPPDQITEEEIKQALQEHFGEVEIDWNPGDGRIPITVYMPPGDMNKIQDALKEAGLSAG [r5_378_TrROS]”, the “folding stability dG unfold” value in data set [1] stood at 0.755 ± 0.053 kcal/mol; in data set [2], 0.218 ± 0.19 kcal/mol. For “SAGGALAVKVEFDEEIPTATITYRAPVPGEGGAVDVPADEVAAAIAKALGLPDLEEVTVNVPAPDAPLSAGG [r13_327_JUSTAS]” the same measures were 0.197 ± 0.075 kcal/mol and -0.543 ± 0.22 kcal/mol. As to “SAGGAMPKTITVTDPTSSREEAEALLASPERLEAIAEEIKPEFPGVDLTVTVSSDPATGTLTITIVSSAGGS [r16_320_JUSTAS]”, the “folding stability dG unfold” value is 0.289 ± 0.072 kcal/mol in data set [1] and less than -1 kcal/mol in data set [2].

Consider “SAGGDILLVIPAELFFDEDGKPSEEAVKAIEKAAELAEKLNKEGKPVKIEVKVVPLLPPVSPSDPYVFSAGG [r13_731_TrMRF]”, for which the “folding stability dG unfold” value was 0.162 ± 0.055 kcal/mol in data set [1] and -0.358 ± 0.36 kcal/mol in data set [2]. Taken in the same sequence, the figures for “SAGGELREKIEEAVEEAAKAGKPVVKTSEIEARLGRPLTPELLEYVREKGIIERDPKGSITITLPEDKSAGG [r13_188_JUSTAS]” were -0.895 ± 0.91 kcal/mol and less than -1 kcal/mol.

As to “SAGGEVKFEKNEDGTITVTVKAESEEEALEALKKLLEEQGFEIEEIKVERLPNGEVKITIKIKPKKPSAGGS [r8_253_TrROS_Hall]”, the “folding stability dG unfold” value in data set [1] turned out to be 3.65 ± 0.4 kcal/mol.

Regarding “SAGGFRINIPPNMPKEKLEEIQDEAEEESGMPVTINTNPDDGSLHIEFPGGPEWKQRRIQDEIRELLSAGGS [r16_227_TrROS]”, the results for the “folding stability dG unfold” value in data set [1] and in data set [2] were -0.507 ± 0.44 kcal/mol and less than -1 kcal/mol, respectively. For “SAGGFRITPEFLEELLKNMPPGDPNKTITVKVEMPMRYEPRKGGNGQPQYRHEYPMTHEFPITIPPKSAGGS [r16_708_TrROS]” the same measures were 0.32 ± 0.066 kcal/mol and -0.349 ± 0.19 kcal/mol. As for “SAGGGEVKKVTYVVVIELPPDPETGEPHPLPLVLEREYPADDPEAVESDIKKALDEIDIPEEAKEALSAGGS [r16_40_TrMRF]”, the “folding stability dG unfold” value in data set [1] is 0.403 ± 0.083 kcal/mol; in data set [2], 0.123 ± 0.32 kcal/mol. As for “SAGGGMTLTQVSSHQSPNGGVPTTLVTETLFYPETGTAVVLTKVRLPETGEVTTVASTVLPIPPPLLSAGGS [r8_384_JUSTAS]”, the “folding stability dG unfold” value in data set [1] was -0.0612 ± 0.066 kcal/mol; in data set [2] it was -0.726 ± 0.31 kcal/mol. For “SAGGGSHTFKDNGKKIKITVYPPPNGNMRVQLQIYDPDDGKPKPKAIAPFRGGSVEDAIKDLLDAGISAGGS [r16_378_TrROS]”, the “folding stability dG unfold” value is -0.0278 ± 0.19 kcal/mol in data set [1] and -0.625 ± 0.32 kcal/mol in data set [2].

As for “SAGGSAGGSAGGKAVFLKTKTVTRTVTRKTTKNGKEEEVATETVTTVELVEVDLDNGEASAGGSAGGSAGGS [r10_93_TrROS_Hall]”, the “folding stability dG unfold” value in data set [1] is -0.708 ± 0.37 kcal/mol.

Consider “SAGGSAGGSAGGKVTVEKDKETGKYTVKIVNKKTKKEITVTVPAKDKEKALKKAKELAKSAGGSAGGSAGGS [r10_1117_TrROS_Hall]”, for which the “folding stability dG unfold” value in data set [1] is -0.349 ± 0.35 kcal/mol. In the case of “SAGGSAGGSAGGMVLKTETRPGFEGGRAWTVTTTVYPDSVVVTTTPPDGVPTTTTIPPSSSAGGSAGGSAGG [r7_516_JUSTAS]”, the “folding stability dG unfold” value in data set [1] was -0.221 ± 0.24 kcal/mol. The same measure, in the same setting: the same measure for “SAGGSAGGSAGKRKIIFQVDNPEDMLDEIKIPPGGEVKIENIEIQPQPNGRHWAVFEIKDSAGGSAGGSAGG [r11_150_TrROS]”: -0.398 ± 0.4 kcal/mol; for “SAGGSAGGSAGKTIPIDEEEAKALFKAGNPRTITRLLPDGKTETLTYQPETNEVSVLDPKAPSAGGSAGGSA [r18_400_JUSTAS]”: -0.795 ± 0.61 kcal/mol; for “SAGSMKTEEKTEEVPPVTLPFGPSVRVRRVTTTITDPSTGKIKEVTVELFDPAGRRRVDPVKKVPVELLSAG [r14_631_JUSTAS]”: 0.794 ± 0.13 kcal/mol. As for “SAGVEYEVKVEYDPETGTVTAPVTFPDGPEAIVEIEFEEPGRYKMIIRIEEEEKEFEVDPDAIDEITIESAG [r5_14_TrMRF]”, the “folding stability dG unfold” value in data set [1] is -0.551 ± 0.25 kcal/mol. For the sequence “SMYVFSTGSKPSSEQLLEKLEKVPNLPKELIKKNTIISDTESSPEIVIPKEVYDKIKKENPEAVKVIESGSA [r9_160_JUSTAS]”, the “folding stability dG unfold” value was -0.991 ± 0.56 kcal/mol in data set [3] and less than -1 kcal/mol in data set [2]. Consider “SPAPPMRIDNIKPEKEDPNGDERKYRVYWQGPNGRPYHYEGPLEELEDMLDEDNIDPDNFWPGDEITIKVSA [r9_1078_TrROS]”, for which the “folding stability dG unfold” value in data set [3] stood at 0.869 ± 0.12 kcal/mol; in data set [2], 0.421 ± 0.31 kcal/mol. Take “SPVAVVTYEDGSVSEVPFTHPDGRAYDLSRGPGDVATLTVTRLLPDGSLEPLPTVPFTSEAEAEAYLAAASA [r9_942_JUSTAS]”: the “folding stability dG unfold” value in data set [3] is 0.201 ± 0.12 kcal/mol; in data set [2], -0.231 ± 0.074 kcal/mol. Consider “SSSSLLKSSTEEVEVSTTFTKTSPDGSLTPVGTTTEVVTKTVKTVPKEILEKLKKEKEKPLPPEGNLGYLSA [r9_1192_JUSTAS]”, for which the results for the “folding stability dG unfold” value in data set [3] and in data set [2] were 0.495 ± 0.36 kcal/mol and 0.000763 ± 0.41 kcal/mol, respectively. For “SSTPKLEEIERPNARFKVTTYTYPNSVKTTADATFPDGTKGKIEETYTPTPEGVKKTVKKDLPPEVKEKLES [r1_153_JUSTAS]” the same measures were 0.0664 ± 0.46 kcal/mol and less than -1 kcal/mol.

In the case of “SSTSMSTEPNRTVTTTTEKGGRSTVTTTTTTTFTASGETTTTTPVTTTTPPPPLGVYKDPAGVTRTRPLLSA [r9_456_JUSTAS]”, the “folding stability dG unfold” value in data set [3] is 0.339 ± 0.079 kcal/mol; in data set [2], -0.012 ± 0.072 kcal/mol.

With “STRTVPIPIRWDNGRLSPDDIRNAIKKALPPGENVKITEETIQNFWQEWAGKNGKPMTPEDFPIRIEVKKSA [r9_197_TrROS]”, the “folding stability dG unfold” value in data set [3] was 0.0542 ± 0.36 kcal/mol; in data set [2], -0.198 ± 0.27 kcal/mol. Turning to “TIKELAKKLGGPITVETEQYPIENPDGNPYYITDIEVQVNPNDGSLRINYEVYNPGNGKKQEEEDTIPLDDS [r1_448_TrROS]”, the “folding stability dG unfold” value in data set [3] was -0.708 ± 0.42 kcal/mol; in data set [2], less than -1 kcal/mol. For the sequence “TLSPEEIEAEARARAEAAVAARPDSAADVELDVPVEFPVRTERRDPRSDRWSRSLSTVRLRLRLRLARGAGS [r1_90_JUSTAS]”, the “folding stability dG unfold” value in data set [3] is 0.343 ± 0.2 kcal/mol; in data set [2], -0.468 ± 0.24 kcal/mol.
